Values of other authors, collected in publication PMC7761795.

How the values were obtained:
[1] = molecular target: UBE2N (Homo sapiens) (UniProt P61088); assay: SPR; settings: cited from earlier work
[2] = molecular target: UBE2N (Homo sapiens) (UniProt P61088); assay: fluorescence polarization; settings: cited from earlier work

Sequence of OTUB1 (Q96FW1 2-271): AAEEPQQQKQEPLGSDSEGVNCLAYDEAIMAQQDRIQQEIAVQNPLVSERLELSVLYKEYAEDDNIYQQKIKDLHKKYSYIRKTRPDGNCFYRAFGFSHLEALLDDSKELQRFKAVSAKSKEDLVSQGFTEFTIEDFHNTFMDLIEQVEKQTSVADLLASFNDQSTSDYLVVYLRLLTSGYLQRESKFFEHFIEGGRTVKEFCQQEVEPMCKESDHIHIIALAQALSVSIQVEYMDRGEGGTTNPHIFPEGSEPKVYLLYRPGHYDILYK
Sequence of UBE2N (Homo sapiens) (P61088 whole entry): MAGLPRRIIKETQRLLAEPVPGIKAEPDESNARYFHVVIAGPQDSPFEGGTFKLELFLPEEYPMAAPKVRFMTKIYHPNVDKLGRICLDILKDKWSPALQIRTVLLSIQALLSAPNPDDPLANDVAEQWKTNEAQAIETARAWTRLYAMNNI

Substance: OTUB1 (from UniProt Q96FW1)
- Kd [1]: 8.9 µM
- Kd [2]: 7.04 µM
